Test results as given in the nanobody polyreactivity screen of Harvey et al. (2022).

Test: yeast display, Sf9 membrane polyspecificity reagent, FACS + sequencing; frameworks hold sequencing errors
How it was run: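 Galactose-induced (36–48 hours) yeast carrying a synthetic nanobody display library were exposed to 10% biotinylated, detergent-solubilized Sf9 membrane reagent at 4 °C for 1 hour. FACS followed streptavidin microbead enrichment, using low and high (top ~1%) gates for expression (anti-HA) and reagent binding (streptavidin). Colony PCR, MiSeq 2 × 250 sequencing and CDR-length filtering followed. Labels for polyreactivity reflect the gate of origin.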

| Sequence | polyreactivity (PSR sort gate) |
| --- | --- |
| QVQLVESGGGLVQAGGSLRLSCAASGSILYPYAMGWYRQAPGKERELVAAISRGGSTNYADSVKGRFTISRDNAKNTVYLQMNSLKPEDTAVYYCATAYTRFSQRYEYYVIYWQNDYWGQGTQVTVSS | low polyreactivity |
| QVQLVESGGGLVQAGGSLRLSCAASGSILYRYTMGWYIQAPGKERELVAAITKRGGRTYYADSVKGRFTISRDTAKNTVYLQMNSLKREDTAVYYCAAKYYTGGSFEMYYWGQGTQVTVSS | high polyreactivity |
| QVQLVESGGGLVQAGGSLRLSCAASGSILYRYTMGWYRQAPGIERELVAAITKRGGRTYYADSVKGRFTISRDNAKNTVYLQTNSLKPEDTAVYYCAAKYYTGGSFEMYYWGQGTQVTVSS | high polyreactivity |
| QVQLVESGGGLVQAGGSLRLSCAASGSILYTNAMGWYRQAPGKERELVAAITTSGASTYYADSVKGRFTISRDNAKNTVYLQMNSLKPEDTAVYYCAATDYFPYDTYYAHDYWGQGTQVTVSS | high polyreactivity |
| QVQLVESGGGLVQAGGSLRLSCAASGSILYVNAMGWYRQATGKERELVAAITRTGGSTYYADSVKGRFTISRDNAKNTVYLQMNSLKPEDTAVYYCNAASSLPGYDYWGQGTQVTVSS | high polyreactivity |
| QVQLVESGGGLVQAGGSLRLSCAASGSILYVYALAWYRQAPGKERALVAAIYSGASTYYADSVKGRFTISPDNAKNTVYFQMNSLIPEETAVYYCAAYVFFQTYFSYYVEGDYWGQGTQVTVSS | low polyreactivity |
| QVQLVESGGGLVQAGGSLRLSCAASGSILYVYAMGRYRQAPGKERELVAAISGSGGSTYYADSVKGRFTISRDNAKNTVYLQMNSLKPEDTAVYYCAADYATVTWRGIAYDYWGLGTQVTVSS | low polyreactivity |
| QVQLVESGGGLVQAGGSLRLSCAASGSILYWYAMGWYRQAPGKERELVAAITSSGDSTDYADSVKGRFTISRDNAKKTVYLQMNILKPEDSAVYYCNVQPVYADHFTEFDYCGQGTQVTVSS | low polyreactivity |
| QVQLVESGGGLVQAGGSLRLSCAASGSILYYAMGWYRQAPGKERELVATITRGGSTYYADSVKGRFTISRDNAKNTVYLQMNSLKPDDTAVYYCAARRAVRVGYYWHDISSYDYWGQGTQVTVPS | low polyreactivity |
| QVQLVESGGGLVQAGGSLRLSCAASGSINYYAMGWYRQAPVKERELVAAITRSGGGTYYADSVKGRFTISRDNAMNTVYLQMNSLIPEDTAVYYCAAARYSRAQPNWTYNYWGQGTQVTVSS | high polyreactivity |
| QVQLVESGGGLVQAGGSLRLSCAASGSISAIYTMGWYRQATGKERELVAAITGSAGSTYADSVKGRFTISRDNAKNTVYLQMNSLKPEDTAVYYCNAQPGDDVKVKLDYWGQGSQVTVSS | low polyreactivity |
| QVQLVESGGGLVQAGGSLRLSCAASGSISAVNTMGWYRQAPGKERELVATISYSTASTYYADSVKGRFTISRDNAKITVYLQMNCLKPEDTAVYFCAADAYFDTWYDYWGQGTQVTVSS | low polyreactivity |
| QVQLVESGGGLVQAGGSLRLSCAASGSISETNAMGWYRQAPGKERELVAAISGSGGSTYADSVKGRFTISRDNAKNTVYLQMNSLKPEDTAVYYCARDRYYTREWYWYRHDHWGQGTQVTVSS | low polyreactivity |
| QVQLVESGGGLVQAGGSLRLSCAASGSISGLYAMGWYRQATGKERELVAAITFRDGTTSYADSVKGRFTISRDNAKNTVYLQMNSLKPEDTAVYYCAAVDRDSNSSVPTLDHWGQGTQVTVSS | low polyreactivity |
| QVQLVESGGGLVQAGGSLRLSCAASGSISGRYAMGWSRQAPGKEMELVAAISWIGGSTYYADSVKGRFTISRDNAKNTVYLQMISLKPEDTAVYYCYVTIDTRTDPLLVVLYGYDYWGQGTLVTVSS | low polyreactivity |
| QVQLVESGGGLVQAGGSLRLSCAASGSISGWYAMGWYRQAPGKERELVADISSIAGSTYYADSVKGRFTISRDNAKNTVYLQMNSLKPEDTAVYYCAADRGFYYEYDYWGQGTQVTVSS | low polyreactivity |
| QVQLVESGGGLVQAGGSLRLSCAASGSISGYYAMGWYRQAPGKERELVASIRYTGARTYYADSVKGRFTISRDNAKNTVYLQMNSLKPEDTAVYYCNARVDWGWPGYEYDYWGQGTQVTVSS | low polyreactivity |
